Experimental findings from patent US20060287236A1 are described below.

The target in this experiment is endogenous peptides. As to the kind of experiment: acid eluate of purified heterodimer, Edman pool sequencing.

B1: soluble rat FcRn heterodimer (receptor, part only; not given: light chain, UniProt P13599 23-291, looked up, part only)
MHC heavy: AEPRLPLMYHLAAVSDLSTGLPSFWATGWLGAQQYLTYNNLRQEADPCGAWIWENQVSWYWEKETTDLKSKEQLFLEAIRTLENQINGTFTLQGLLGCELAPDNSSLPTAVFALNGEEFMRFNPRTGNWSGEWPETDIVGNLWMKQPEAARKESEFLLTSCPERLLGHLERGRQNLEWKEPPSMRLKARPGNSGSSVLTCAAFSFYPPELKFRFLRNGLASGSGNCSTGPNGDGSFHAWSLLEVKRGDEHHYQCQVEHEGLAQPLTVDL
For B1, the pmole of amino acids recovered from acid elution, cycle 1 was determined as 5.9 pmol; the pmole of amino acids recovered from acid elution, cycle 2 came to 4.7 pmol; the pmole of amino acids recovered from acid elution, cycle 3 is 0.7 pmol; the pmole of amino acids recovered from acid elution, cycle 4 is 7.6 pmol. Also, the pmole of amino acids recovered from acid elution, cycle 5 came to 0 pmol; the pmole of amino acids recovered from acid elution, cycle 6 stood at 0 pmol; the pmole of amino acids recovered from acid elution, cycle 7 was determined as 0.2 pmol; the pmole of amino acids recovered from acid elution, cycle 8 worked out at 0.6 pmol. The molecule also had a pmole of amino acids recovered from acid elution, cycle 9 of 9.5 pmol and a pmole of amino acids recovered from acid elution, cycle 10 of 0.3 pmol.
